Results taken from paper PMC9720954, “Blood–brain barrier penetrating neprilysin degrades monomeric amyloid-beta in a mouse model of Alzheimer’s disease” (Alzheimer's Research & Therapy, 2022).

Experiments:
Aβ1-40 monomers = target: T1, Aβ1-40 monomers (Homo sapiens (synthetic peptide; …, UniProt P05067); assay: ELISA; sandwich ELISA; 1 nM Aβ1-40 monomers or 1 nM Aβ1-42 aggregates held by coated rabbit polyclonal antibodies (C-terminal of Aβ, or Aβ1-42); serial dilutions of the recombinant proteins in 0.1% BSA, 0.05% Tween-20 in PBS, 2 h at RT; goat anti-mouse HRP; conditions: both partners purified
T1 construct: amyloid-beta 1-40, cut product of the amyloid precursor protein (APP); numbers count on: the Aβ peptide; Used as monomers, held on the plate by a rabbit polyclonal antibody against the C-terminus of Aβ; also called Aβ40; wt-Aβ1-40; source: bought: Innovagen

Aβ1-42 aggregates = target: T2, Aβ1-42 aggregates (Homo sapiens (synthetic peptide; …, UniProt P05067); assay: as above; conditions: both partners purified
T2 construct: amyloid-beta 1-42, cut product of the amyloid precursor protein (APP); numbers count on: the Aβ peptide; Soluble aggregates; also called Aβ42; Aβ1-42 soluble aggregates; source: aggregates prepared as previously described [50]
T2 sequence (P05067 672-713): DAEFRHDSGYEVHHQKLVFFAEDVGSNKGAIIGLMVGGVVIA

T1 sequence (P05067 672-711): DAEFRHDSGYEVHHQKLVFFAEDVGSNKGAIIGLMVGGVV

B1: scFc-scFv8D3 (scFv, V domains shown)
VH: EVQLVESGGGLVQPGNSLTLSCVASGFTFSNYGMHWIRQAPKKGLEWIAMIYYDSSKMNYADTVKGRFTISRDNSKNTLYLEMNSLRSEDTAMYYCAVPTSHYVVDVWGQGVSVTVSS
VL: DIQMTQSPASLSASLEEIVTITCQASQDIGNWLAWYQQKPGKSPQLLIYGATSLADGVPSRFSGSRSGTQFSLKISRVQVEDIGIYYCLQAYNTPWTFGGGTKLELK
notes: first variable domain of scFv8D3, as in m1; (G4S)3 linker between the two parts of scFv8D3, written out from the printed formula; second variable domain of scFv8D3, as in m1; in-house linker between scFv8D3 and scFc; Lacks NEP; the control of the study; the signal peptide is cleaved on expression; Mw 81 kDa; also called scFv8D3-scFc; source: Expi293 cells, transfected (pcDNA3.4), purified …
Does B1 bind (Aβ1-40 monomers)?
Result: no binding

Does B1 bind (Aβ1-42 aggregates)?
Result: no binding
